Legend:
[1] = target: T1, TruB (tmTruB), tRNA pseudouridine-55 synthase (Thermotoga maritima, UniProt Q9WZW0 1-309); assay: fluorescence titration (spectral shifts, lifetime/anisotropy); average over three titration curves; 200 nM tRNA; 1x MST buffer (composition not in material); tRNA folded 4 min 75 C in water then cooled in buffer; MST at 25 C, 50 nM tRNA; fluorescence at 200 nM tRNA; SDS-PAGE complexes formed at 25 or 70 C; details: protein: recombinant, tRNA fold
T1 sequence: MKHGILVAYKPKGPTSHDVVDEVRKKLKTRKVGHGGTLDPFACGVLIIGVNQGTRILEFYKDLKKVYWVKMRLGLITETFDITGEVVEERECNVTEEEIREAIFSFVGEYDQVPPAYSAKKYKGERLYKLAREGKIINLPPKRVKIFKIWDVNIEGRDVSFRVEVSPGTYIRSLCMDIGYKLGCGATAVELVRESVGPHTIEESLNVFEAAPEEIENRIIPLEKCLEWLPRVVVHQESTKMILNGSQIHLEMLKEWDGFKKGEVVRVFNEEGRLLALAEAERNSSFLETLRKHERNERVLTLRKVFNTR

[2] = target: T1, TruB (tmTruB), tRNA pseudouridine-55 …; assay: MST; one of three runs 1 month apart; unit cut off in the material (nM assumed); 1x MST buffer (composition not in material); tRNA folded 4 min 75 C in water then cooled in buffer; MST at 25 C, 50 nM tRNA; fluorescence at 200 nM tRNA; SDS-PAGE complexes formed at 25 or 70 C; details: protein: recombinant; label: Cy5 at U33 (internal); tRNA fold

B1: C49-5FU55-tRNA (Cy5 at C49) (structured_RNA)
RNA: GCGGAUUUAGCUCAGUUGGGAGAGCGCCAGACUGAAGAUCUGGAGGUCCUGUGUUCGAUCCACAGAAUUCGCACCA
modifications: 5-fluorouridine at position 55; 5-aminohexyl-3-acrylimido-deoxycytidine at C49
- Kd ([1]; label: Cy5 at C49 (internal)): 124 nM

B2: C49-U55-tRNA (Cy5 at C49) (structured_RNA)
RNA: GCGGAUUUAGCUCAGUUGGGAGAGCGCCAGACUGAAGAUCUGGAGGUCCUGUGUUCGAUCCACAGAAUUCGCACCA
modifications: 5-aminohexyl-3-acrylimido-deoxycytidine at C49
- Kd ([1]; label: Cy5 at C49 (internal)): 226 nM

B3: U33-5FU55-tRNA (Cy5 at U33) (structured_RNA)
RNA: GCGGAUUUAGCUCAGUUGGGAGAGCGCCAGACUGAAGAUCUGGAGGUCCUGUGUUCGAUCCACAGAAUUCGCACCA
modifications: 5-fluorouridine at position 55; 5-aminohexyl-3-acrylimido-uridine at U33
- Kd ([1]; label: Cy5 at U33 (internal)): 3.7 nM
- Kd [2]: 37.3 nM

Source: PMC4227767, “Dye label interference with RNA modification reveals 5-fluorouridine as non-covalent inhibitor”
